Results published in PMC5737878 (Nucleic Acids Research, 2017).

How the values were obtained:
[1] = target: GR DBD (UniProt P04150 417-506); experiment: fluorescence polarization
[2] = target: the molecule itself; experiment: NMR titration

B1: IL1a TRE (FP) (dsDNA)
DNA 1: GAAGAAGACTGACTCTCAGGCTTAAGC
DNA 2: GCTTAAGCCTGAGAGTCAGTCTTCTTC
B1: binds [1].

B2: MMP13 TRE (FP) (dsDNA)
DNA 1: ATAAGTGATGACTCACCATTGCA
DNA 2: TGCAATGGTGAGTCATCACTTAT
B2: binds [1].

B3: VCAM1 TRE (FP) (dsDNA)
DNA 1: TTCCGGCTGACTCATCAAGCG
DNA 2: CGCTTGATGAGTCAGCCGGAA
B3: binds [1].

B4: Glucocorticoid receptor DNA binding domain (GR DBD, residues 417-506), 15N-labelled (domain or fragment, UniProt P04150 417-506, looked up)
chain: PPKLCLVCSDEASGCHYGVLTCGSCKVFFKRAVEGQHNYLCAGRNDCIIDKIRRKNCPACRYRKCLQAGMNLEARKTKKKIKGIQQATTG
modifications: 15N-labelled
B4: binds [2].
